# Measurements reported in patent US20190300603A1 (CRESCENDO BIOLOGICS, published 2019).
# B1: VH domain as identified in SEQ ID NO: 1 (optimised anti-IL-17A single VH domain antibody) (VHH)
# VHH: EVQLVESGGGLVQPGGSLRLSCAASGFTFSSYSMYWVRQAPGKGLEWVAEIKQDGSVQYYVSDVKGRFTISRDNAKNSLYLQMNSLRAEDTAVYYCAKGEILPLYFDYWGQGTLVTVSS
# notes: Human VH single domain antibody (Humabody VH) without a light chain, from Tg/TKO mice and then optimised
# Molecular target: T1, recombinant human IL-17A (human, UniProt Q16552 24-155)
# T1 construct: also called Peprotech cat# AF-200-17
# T1 sequence: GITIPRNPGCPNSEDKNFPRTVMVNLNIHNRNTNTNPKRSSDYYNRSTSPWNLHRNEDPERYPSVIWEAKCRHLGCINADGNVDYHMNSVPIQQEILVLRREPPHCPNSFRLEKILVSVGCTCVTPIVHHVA
# Assay: ELISA
binder,measurement,value
B1,binding result,binds
